Experimental data taken from patent US20090117613A1, “Method for redox reaction using an old yellow enzyme” (priority 2007, published 2009).

What was measured:
[1] = Desaturation of cyclohexanone to cyclohex-2-enone and phenol; details: 30, 50, and 70° C.
Method: The reaction sample contained 500 μL protein solution and 10 mM Cyclohexanone (˜1 μL). The final volume of the reaction was ˜500 μL. The reaction was carried out at 70° C. for 24 hours.
(§1) The desaturation reaction was carried out using cyclohexanone with all three enzymes at 30, 50, and 70° C. The reductase activity using cyclohexenone as substrate was also measured under similar conditions.

[2] = Reductase activity using cyclohexenone as substrate; assay type: biochemical; details: for reductase activity (saturation of cyclohexenone): 30, 50, and 70° C.
Method: as §1

[3] = Reduction of carvone to dihydrocarvone; assay type: biochemical; details: cyclohexenone and carvone as substrates
Method: The sample for the reduction reaction contained: 500 μL protein solution+(+)Carvone (˜1.5 μL)+200 μL GDH 102 (10 mg/mL) and Glucose (200 mM)+100 μL NADPH (10 mM). The final volume of the reaction was 800 μL. The reaction was carried out for 24 h at various temperatures (see table 2).

[4] = GkOYE-catalyzed desaturation of testosterone to boldenone (HPLC/MS); assay type: biochemical; details: 30-70° C., varied in 5° C. increments

B1: OPR3: OPR3 (tomato) recombinant OYE, expression clone from TU-Graz (protein, UniProt Q9FEW9 1-396, looked up)
12-oxophytodienoate reductase …: MASSAQDGNNPLFSPYKMGKFNLSHRVVLAPMTRCRALNNIPQAALGEYYEQRATAGGFLITEGTMISPTSAGFPHVPGIFTKEQVREWKKIVDVVHAKGAVIFCQLWHVGRASHEVYQPAGAAPISSTEKPISNRWRILMPDGTHGIYPKPRAIGTYEISQVVEDYRRSALNAIEAGFDGIEIHGAHGYLIDQFLKDGINDRTDEYGGSLANRCKFITQVVQAVVSAIGADRVGVRVSPAIDHLDAMDSNPLSLGLAVVERLNKIQLHSGSKLAYLHVTQPRYVAYGQTEAGRLGSEEEEARLMRTLRNAYQGTFICSGGYTRELGIEAVAQGDADLVSYGRLFISNPDLVMRIKLNAPLNKYNRKTFYTQDPVVGYTDYPFLQGNGSNGPLSRL
Q: With B1 as the molecule, how does the desaturation of cyclohexanone [1] read?
A: The desaturation of cyclohexanone was “no desaturation was observed”.

Q: And the “reductase activity (saturation of cyclohexenone)” value [2]?
A: Its value is “almost inactive at 50 °C”.

Q: And the “stereoselectivity of reductase activity” value [3]?
A: The value was “comparable to GkOYE”.

B2: YqjM: Homologous OYE from Bacillus subtilis (similarity: 80%), expression clone from TU-Graz (protein, UniProt P54550 2-338, looked up)
NADPH dehydrogenase: ARKLFTPITIKDMTLKNRIVMSPMCMYSSHEKDGKLTPFHMAHYISRAIGQVGLIIVEASAVNPQGRITDQDLGIWSDEHIEGFAKLTEQVKEQGSKIGIQLAHAGRKAELEGDIFAPSAIAFDEQSATPVEMSAEKVKETVQEFKQAAARAKEAGFDVIEIHAAHGYLIHEFLSPLSNHRTDEYGGSPENRYRFLREIIDEVKQVWDGPLFVRVSASDYTDKGLDIADHIGFAKWMKEQGVDLIDCSSGALVHADINVFPGYQVSFAEKIREQADMATGAVGMITDGSMAEEILQNGRADLIFIGRELLRDPFFARTAAKQLNTEIPAPVQYERGW
Q: For B2, which desaturation of cyclohexanone [1] is on record?
A: The desaturation of cyclohexanone was “no desaturation was observed”.

Q: And the “reductase activity (saturation of cyclohexenone)” value [2]?
A: Its value is “significantly reduced reductase activity”.

Q: What about the enone reductase activity ([2]; 70° C.) of the same molecule?
A: The enone reductase activity was “demonstrated”.

Q: And the “testosterone hydroxylation or desaturation (oxidized testosterone derivative)” value [4]?
A: The value was “no oxidized testosterone derivative is detected”.

Q: What about the “stereoselectivity of reductase activity” value [3] of the same molecule?
A: The value was “comparable to GkOYE”.
